Assay results from PMC4695337, “Crystal Structure of a Eukaryotic GEN1 Resolving Enzyme Bound to DNA”.
Numbering of substitutions follows the chain as printed.

Assays:
[1] = biological target: T1, CtGEN1 (Chaetomium thermophilum? (printed C. …, UniProt G0RYN2 1-487)); assay: EMSA; EMSA fitted to Hill equation, protein 2.1-43 nM (monomer); binding buffer and temperature not in material. Crystals: 100 mM HEPES pH 7.5, 2 mM MgCl2, 20% PEG10000, 7 C; settings: protein: recombinant; tags: C-terminal His6; four-way junction of 4 strands (b/h/r/x)
T1 sequence: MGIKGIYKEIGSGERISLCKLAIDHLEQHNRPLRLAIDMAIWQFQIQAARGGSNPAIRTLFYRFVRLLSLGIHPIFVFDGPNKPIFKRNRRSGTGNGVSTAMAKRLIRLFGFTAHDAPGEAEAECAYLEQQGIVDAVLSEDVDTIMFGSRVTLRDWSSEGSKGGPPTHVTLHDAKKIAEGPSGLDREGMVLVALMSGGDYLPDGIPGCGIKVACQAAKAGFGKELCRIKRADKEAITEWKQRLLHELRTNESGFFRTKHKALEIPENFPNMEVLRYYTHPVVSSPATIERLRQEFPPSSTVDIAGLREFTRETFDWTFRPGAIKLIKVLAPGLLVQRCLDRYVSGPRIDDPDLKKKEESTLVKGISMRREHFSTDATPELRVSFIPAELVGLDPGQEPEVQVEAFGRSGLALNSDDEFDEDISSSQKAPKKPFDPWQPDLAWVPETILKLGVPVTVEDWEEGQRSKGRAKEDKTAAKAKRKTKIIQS

[2] = biological target: T2, CtGEN1 D141A (Chaetomium thermophilum? (printed C. …, UniProt G0RYN2 1-487, D141A)); assay: as above; settings: protein: recombinant; tags: C-terminal His6; chain copies: 2; four-way junction of 4 strands (b/h/r/x)
T2 sequence: T1 sequence with D141A

[3] = biological target: T3, CtGEN1 E122A (Chaetomium thermophilum? (printed C. …, UniProt G0RYN2 1-487, E122A)); assay: as above; settings: protein: recombinant; tags: C-terminal His6; chain copies: 2; four-way junction of 4 strands (b/h/r/x)
T3 sequence: T1 sequence with E122A

[4] = biological target: T4, CtGEN1 E120A (Chaetomium thermophilum? (printed C. …, UniProt G0RYN2 1-487, E120A)); assay: as above; settings: protein: recombinant; tags: C-terminal His6; chain copies: 2; four-way junction of 4 strands (b/h/r/x)
T4 sequence: T1 sequence with E120A

[5] = biological target: T5, CtGEN1 D38A (Chaetomium thermophilum? (printed C. …, UniProt G0RYN2 1-487, D38A)); assay: as above; settings: protein: recombinant; tags: C-terminal His6; chain copies: 2; four-way junction of 4 strands (b/h/r/x)
T5 sequence: T1 sequence with D38A

[6] = biological target: T6, CtGEN1 D143A (Chaetomium thermophilum? (printed C. …, UniProt G0RYN2 1-487, D143A)); assay: as above; settings: protein: recombinant; tags: C-terminal His6; chain copies: 2; four-way junction of 4 strands (b/h/r/x)
T6 sequence: T1 sequence with D143A

[7] = biological target: T7, CtGEN1 D79A (Chaetomium thermophilum? (printed C. …, UniProt G0RYN2 1-487, D79A)); assay: as above; settings: protein: recombinant; tags: C-terminal His6; chain copies: 2; four-way junction of 4 strands (b/h/r/x)
T7 sequence: T1 sequence with D79A

[8] = biological target: T1, CtGEN1; assay: crystal structure; Mn2+ (1 mM MnCl2 soak); EMSA fitted to Hill equation, protein 2.1-43 nM (monomer); binding buffer and temperature not in material. Crystals: 100 mM HEPES pH 7.5, 2 mM MgCl2, 20% PEG10000, 7 C; settings: protein: recombinant; tags: C-terminal His6; 14 bp with 3' overhang 1 nt on r strand
[9] = biological target: T1, CtGEN1; assay: crystal structure; Mg2+ (2 mM MgCl2); EMSA fitted to Hill equation, protein 2.1-43 nM (monomer); binding buffer and temperature not in material. Crystals: 100 mM HEPES pH 7.5, 2 mM MgCl2, 20% PEG10000, 7 C; settings: protein: recombinant; tags: C-terminal His6; r strand 1-14 paired with h 17-30 (14 bp); r 16-30 paired with x 1-15 (15 bp); mismatch r15/x16

B1: four-way junction 3 (50 nt strands) (structured_DNA)
DNA 1: GGCTAAGGGATCCGTCCTAGCAAGGGGCTGCTACCGGAGGCTTACATCGG
DNA 2: CCGATGTAAGCCTCCGGTAGCAGCCTGAGCGGTGGTTGGATGTTGACTGC
DNA 3: GCAGTCAACATCCAACCACCGCTCAACTCAACTGCAGTCTAGATGGACTG
DNA 4: CAGTCCATCTAGACTGCAGTTGAGTCCTTGCTAGGACGGATCCCTTAGCC
[1]
  Kd: 7.7 ± 0.01 nM
[2]
  Kd: 10 ± 0.01 nM
[3]
  Kd: 4.6 ± 0.04 nM
[4]
  Kd: 6.5 ± 0.1 nM
[5]
  Kd: 6.2 ± 0.05 nM
[6]
  Kd: 7.1 ± 0.01 nM
[7]
  Kd: 5.9 ± 0.05 nM

B2: R-stem duplex as modeled in 5CNQ (dsDNA)
DNA 1: TCCAACCACCGCTCA
DNA 2: GAGCGGTGGTTGGA
modifications: 5'-phosphate at cleaved 5' end of h strand product
[8]
  binding result: binds

B3: junction 3 resolution product (crystal) (structured_DNA)
DNA 1: TCCAACCACCGCTCAACTCAACTGCAGTCT
DNA 2: GAGCGGTGGTTGGA
DNA 3: AGACTGCAGTTGAGTC
modifications: 5'-phosphate at cleaved 5' end of h strand product
[9]
  binding result: binds
